For series [1], the system named is Lrrk mutant (−/−) Drosophila. As to the kind of experiment: Negative geotaxis analysis of lrrk mutant Drosophila. It is filed as in vivo. The note with it: pan-neuronal expression in lrrk mutant (−/−) Drosophila. The procedure: FIG. 11 is a bar graph showing a negative geotaxis analysis of lrrk mutant Drosophila. […] Bars represent Mean times to climb 10 cm upward in a cylinder are represented. Error bars are SEM. ***: p<0.001, for comparison with the non-transgenic group by ANOVA (df=3, F=13.14) followed by Tukey HSD post hoc analysis.
Drosophila were cultured by standard methods on yeast-cornmeal-agar medium at 25° C. Wild-type and mutant G2019S LRRK2 transgenes were expressed specifically in catecholaminergic neurons, including dopamine neurons, using the Gal4-UAS system described (Fischer et al., 1988). Driver lines used include OK6 (motor neuron), Gmr (eye), G14 (muscle), TH (dopaminergic neuron), and DDC (dopaminergic neuron). A UAS-GFP::nuclear localization sequence (NLS) marker was used to visualize nucleii of cells in which trangenes were expressed (stock 4775 (w 1118; P{UAS-GFP.nls}14), Drosophila Stock Center, Bloomington, Ind.). For the RAB screen, UAS-LRRK2 (G2019S) transgenic Drosophila, crossed with the TH-Gal4 driver, were screened against a UAS-Rab transgenic library (Zhang et al., 2007). Crossings were typically performed using standard balancer chromosome techniques. […] For mortality curves, transgenic Drosophila surviving through adult metamorphosis were counted daily, from the day of pupal eclosion onward. Locomotion deficits were assessed by methods know in the art.

The subject of series [2] is Drosophila model of LRRK2 G2019S neurodegeneration. The experiment in a line: Drosophila adult survival: Rab modifier screen of the LRRK2 G2019S early adult lethality phenotype. It is filed as in vivo. The note with it: for Average adult lifespan: TH-driven Rab GTPase transgene co-expressed with LRRK2 G2019S in Drosophila dopamine neurons, days post-eclosion; for rescue of the LRRK2 G2019S premature mortality phenotype (survival): co-expression with LRRK2 G2019S in Drosophila dopamine neurons. An excerpt:
To pursue potential mechanisms of LRRK2 pathology in vivo, a Drosophila model was established. […] Dopamine neuron-selective expression of human familial PD-associated G2019S-mutant LRRK2—using either a tyrosine hydroxylase (TH) (Friggi-Grelin et al., 2003) or dopa decarboxylase (DDC) promoter-Gal4 driver (Fischer et al., 1988)—induced premature mortality of young adult animals (FIG. 4A; nontransgenic mean lifespan 37.1 days+/−1; G2019S mean lifespan 4.8 days+/−0.2), akin to previous reports (Ng et al., 2009).
Subsequently a targeted screen for potential genetic modifiers of the LRRK2 G2019S mutant phenotype was performed, based on the idea that LRRK2 may modify a specific intracellular trafficking process, and focused on RAB7L1. A series of 16 Drosophila Rab genes, (see Table 4; out of 33 identified in Drosophila), or CA or IN forms of these (Zhang et al., 2007), were investigated.
Briefly, LRRK2 G2019S mutants were mated with a panel of previously described transgenic Drosophila strains that allow for overexpression of wild-type (WT) or constitutively active (CA), forms of the Rab genes (Zhang et al., 2007), using a standard balancer chromosome-based mating scheme. Co-expression of a majority of these Rab transgenes with LRRK2 within dopamine neurons produced no effect on the survival of animals co-expressing LRRK2 G2019S (FIG. 4A; Table 4).
Drosophila were cultured by standard methods on yeast-cornmeal-agar medium at 25° C. Wild-type and mutant G2019S LRRK2 transgenes were expressed specifically in catecholaminergic neurons, including dopamine neurons, using the Gal4-UAS system described (Fischer et al., 1988). Driver lines used include OK6 (motor neuron), Gmr (eye), G14 (muscle), TH (dopaminergic neuron), and DDC (dopaminergic neuron). A UAS-GFP::nuclear localization sequence (NLS) marker was used to visualize nucleii of cells in which trangenes were expressed (stock 4775 (w 1118; P{UAS-GFP.nls}14), Drosophila Stock Center, Bloomington, Ind.). For the RAB screen, UAS-LRRK2 (G2019S) transgenic Drosophila, crossed with the TH-Gal4 driver, were screened against a UAS-Rab transgenic library (Zhang et al., 2007). Crossings were typically performed using standard balancer chromosome techniques. To generate strains in which the homozygous LRRK2 transgene and another (Driver or marker) transgene lay on the same chromosome (III), genetic recombination was using standard techniques. Adult Drosophila mushroom bodies were dissected as in (Wu and Luo, 2006) and imaged immediately, without fixation, using a Zeiss LSM510 Meta confocal fluorescent microscope. For mortality curves, transgenic Drosophila surviving through adult metamorphosis were counted daily, from the day of pupal eclosion onward. Locomotion deficits were assessed by methods know in the art.

Series [3] concerns rat primary cortical neurons. As to the kind of experiment: Neurite length assay in transfected primary cortical neuron cultures. It is filed as cell-based. Conditions: co-transfection with LRRK2 G2019S (0.5 μg/well); test vector 1 μg/well. An excerpt: As 5 candidate genes are present within the PARK16 locus (SLC45A3, NUCKS, RAB7L1, SLC41A1, and PM20D1), each of the genes were experimentally screened for a functional interaction with LRRK2 (FIG. 2A). A previously-described primary rat neuron in vitro culture model was used, in which transient expression of familial PD-associated LRRK2 G2019S or R1441C mutant alleles leads to a marked reduction in neurite process length (MacLeod et al., 2006). […] RAB7L1 is a small cytosolic GTPase, structurally distinct from RAB7 despite its name (also known as RAB29) (Shimizu et al., 1997). […] But the function of RAB7L1 in CNS neurons remains unknown. Orthologues of RAB7L1 in other organisms, including C. elegans Glo-1 and Drosophila melanogaster Lighloid, have been implicated in trafficking to lysosome-related organelles (Hermann et al., 2005) and in the regulation of neurite process length (Grill et al., 2007), reminiscent of LRRK2 mutant phenotypes (MacLeod et al., 2006). Thus this gene was of particular interest.
Sprague-Dawley rat or mouse PI primary dissociated cortical cultures were prepared and transfected essentially as described (Xia et al., 1996) with the following modifications: cells were plated at high density, approximately 250,000 cells/cm2, in 24-well plates with 500 ul medium/well. Culture medium used for plating cells was Neurobasal-A supplemented with 2% B-27 and 10% FBS. At 1 day after plating, medium was changed to reduced serum (1% FBS+added antimitotic agents: 70 μM uridine and 25 μM 5-fluorodeoxyuridine) and replaced weekly thereafter; for transfections no DMSO was added to the transfection mixture, cells were not subjected to glycerol shock, and a total of 3 μg plasmid DNA was used per well. Cells were fixed in 4% PFA and immunostained with mouse α-RAB7L1 (Santa Cruz, 1:100), and rabbit monoclonal α-LRRK2 (Michal J. Fox Foundation MJFF4, 1:100), then with appropriate fluorescent secondaries (Jackson, 1:1000-2000). Neurite length and neurite puncta (defined as swellings greater than 2 um in diameter) were counted for at least 20 neurons per condition. Mean puncta number per neuron was normalized to total average neurite length versus wild-type LRRK2 transfected cells. Fluorescent microscopy was performed using a Nikon TE 2000-S microscope and a Zeiss LSM510 Meta confocal microscope. Images were analyzed using Image-Pro Plus (Mediacybernetics) software version 5.1.0.20.

We go through ten molecules from US20160184454A1, “RAB7L1 INTERACTS WITH LRRK2 TO MODIFY INTRANEURONAL PROTEIN SORTING AND PARKINSON'S DISEASE RISK” (THE TRUSTEES OF COLUMBIA UNIVERSITY IN THE CITY OF NEW YORK, priority 2013, published 2016).

In the case of “G2019S: human familial PD-associated G2019S-mutant LRRK2 transgene”, the “defective negative geotaxis (time to climb 10 cm)” value in series [1] is given as “can be rescued”. In series [2] (dopamine neuron-selective expression of the LRRK2 transgene alone (TH or DDC Gal4 driver)), the mean lifespan was 4.8 days.
Take “SLC41A1: PARK16 locus gene overexpression vector”: the “LRRK2 mutation-induced neurite length phenotype” value in series [3] is “failed to rescue”.
Regarding “human LRRK2 WT: wild-type human LRRK2 transgene”, the “defective negative geotaxis (time to climb 10 cm)” value in series [1] is on record as “can be rescued”. The “phenotype on transgenic expression” value in series [2] (dopamine neuron-selective expression of the LRRK2 transgene alone) is recorded as “did not lead to a discernible phenotype”.

B1: SLC45A3: PARK16 locus gene overexpression vector (protein, UniProt Q96JT2 1-553, looked up)
Solute carrier family 45 …: MVQRLWVSRLLRHRKAQLLLVNLLTFGLEVCLAAGITYVPPLLLEVGVEEKFMTMVLGIGPVLGLVCVPLLGSASDHWRGRYGRRRPFIWALSLGILLSLFLIPRAGWLAGLLCPDPRPLELALLILGVGLLDFCGQVCFTPLEALLSDLFRDPDHCRQAYSVYAFMISLGGCLGYLLPAIDWDTSALAPYLGTQEECLFGLLTLIFLTCVAATLLVAEEAALGPTEPAEGLSAPSLSPHCCPCRARLAFRNLGALLPRLHQLCCRMPRTLRRLFVAELCSWMALMTFTLFYTDFVGEGLYQGVPRAEPGTEARRHYDEGVRMGSLGLFLQCAISLVFSLVMDRLVQRFGTRAVYLASVAAFPVAAGATCLSHSVAVVTASAALTGFTFSALQILPYTLASLYHREKQVFLPKYRGDTGGASSEDSLMTSFLPGPKPGAPFPNGHVGAGGSGLLPPPPALCGASACDVSVRVVVGEPTEARVVPGRGICLDLAILDSAFLLSQVAPSLFMGSIVQLSQSVTAYMVSAAGLGLVAIYFATQVVFDKSDLAKYSA
B1: the “LRRK2 mutation-induced neurite length phenotype” value in series [3] is “failed to rescue”.

B2: RAB5A: Rab family member expression vector (protein, UniProt P20339 1-215, looked up)
Ras-related protein Rab-5A: MASRGATRPNGPNTGNKICQFKLVLLGESAVGKSSLVLRFVKGQFHEFQESTIGAAFLTQTVCLDDTTVKFEIWDTAGQERYHSLAPMYYRGAQAAIVVYDITNEESFARAKNWVKELQRQASPNIVIALSGNKADLANKRAVDFQEAQSYADDNSLLFMETSAKTSMNVNEIFMAIAKKLPKNEPQNPGANSARGRGVDLTEPTQPTRNQCCSN
With B2, the “LRRK2 mutation-induced neurite length phenotype” value in series [3] is “failed to rescue the phenotype”.

B3: Rab7WT: TH-driven Drosophila Rab GTPase transgene, wild-type Rab7 (protein, UniProt O76742 1-207, looked up)
Ras-related protein Rab7: MSGRKKSLLKVIILGDSSVGKTSLMNQYVNKRFSNQYKATIGADFCTKEVVVNDRVVTMQIWDTAGQERFQSLGVAFYRGADCCVLVYDVTAPNSFKNLDSWRDEFLIQASPRDPDHFPFVVLGNKVDLDNRQVSTRRAQQWCQSKNDIPYYETSAKEGINVEMAFQVIAKNALELEAEAEVINDFPDQITLGSQNNRPGNPDNCQC
For the molecule B3, in series [2] (Rab transgene co-expressed with LRRK2 G2019S in dopamine neurons), the mean lifespan was found to be 14.3 days. In addition, in series [2], the “Average adult lifespan” value turned out to be 10.2 days and the “rescue of the LRRK2 G2019S premature mortality phenotype (survival)” value was “statistically significant—albeit much weaker—survival benefit”.

B4: Rab7L1WT: TH-driven wild-type Drosophila RAB7L1 orthologue (termed lightoid) transgene (protein)
chain: MGSRDHLFKVLVVGDAAVGKTSLVQRYSQDSFSKHYKSTVGVDFALKVLQWSDSEMVRLQLWDIAGQERFTSMTRLYYRDASACVIMFDVTNATTFSNSQRWKQDLDSKLTLPSGEPVPCLLLANKSDLSPWAVSRDQIDRFSKENGFTGWTETSVKENKNINEAMRVLVEKMMNNSREDIMSSSTQGNYINLQTKPSPGWTCC
modifications: left off: large carriers
notes: TH-driven wild-type Drosophila RAB7L1 orthologue (termed lightoid) transgene
B4: in series [2], the “Average adult lifespan” value is 23.3 days and the “rescue of the LRRK2 G2019S premature mortality phenotype (survival)” value was “dramatic rescue”.

B5: RAB3A: Rab family member expression vector (protein, UniProt P20336 1-220, looked up)
Ras-related protein Rab-3A: MASATDSRYGQKESSDQNFDYMFKILIIGNSSVGKTSFLFRYADDSFTPAFVSTVGIDFKVKTIYRNDKRIKLQIWDTAGQERYRTITTAYYRGAMGFILMYDITNEESFNAVQDWSTQIKTYSWDNAQVLLVGNKCDMEDERVVSSERGRQLADHLGFEFFEASAKDNINVKQTFERLVDVICEKMSESLDTADPAVTGAKQGPQLSDQQVPPHQDCAC
For B5, the “LRRK2 mutation-induced neurite length phenotype” value in series [3] was “failed to rescue the phenotype”.

B6: PM20D1: PARK16 locus gene overexpression vector (protein, UniProt Q6GTS8 26-502, looked up)
N-fatty-acyl-amino acid …: MGPRSGEHQRASRIPSQFSKEERVAMKEALKGAIQIPTVTFSSEKSNTTALAEFGKYIHKVFPTVVSTSFIQHEVVEEYSHLFTIQGSDPSLQPYLLMAHFDVVPAPEEGWEVPPFSGLERDGIIYGRGTLDDKNSVMALLQALELLLIRKYIPRRSFFISLGHDEESSGTGAQRISALLQSRGVQLAFIVDEGGFILDDFIPNFKKPIALIAVSEKGSMNLMLQVNMTSGHSSAPPKETSIGILAAAVSRLEQTPMPIIFGSGTVVTVLQQLANEFPFPVNIILSNPWLFEPLISRFMERNPLTNAIIRTTTALTIFKAGVKFNVIPPVAQATVNFRIHPGQTVQEVLELTKNIVADNRVQFHVLSAFDPLPVSPSDDKALGYQLLRQTVQSVFPEVNITAPVTSIGNTDSRFFTNLTTGIYRFYPIYIQPEDFKRIHGVNEKISVQAYETQVKFIFELIQNADTDQEPVSHLHKL
Turning to B6, the “LRRK2 mutation-induced neurite length phenotype” value in series [3] is reported as “failed to rescue”.

B7: NUCKS1: PARK16 locus gene overexpression vector (protein, UniProt Q9H1E3 1-243, looked up)
Nuclear ubiquitous casein and …: MSRPVRNRKVVDYSQFQESDDADEDYGRDSGPPTKKIRSSPREAKNKRRSGKNSQEDSEDSEDKDVKTKKDDSHSAEDSEDEKEDHKNVRQQRQAASKAASKQREMLMEDVGSEEEQEEEDEAPFQEKDSGSDEDFLMEDDDDSDYGSSKKKNKKMVKKSKPERKEKKMPKPRLKATVTPSPVKGKGKVGRPTASKASKEKTPSPKEEDEEPESPPEKKTSTSPPPEKSGDEGSEDEAPSGED
In the case of B7, the “LRRK2 mutation-induced neurite length phenotype” value in series [3] is on record as “failed to rescue”.
